Experimental data taken from patent US6921663.

Experiments:
Assay in all cases: cell-based or functional assay
[1] = biological target: integrin on SK-HEP1 cells (human (cell line))
[2] = biological target: RGD peptide target integrin (αvβ3 or αvβ5) on LN444 cells (human (LN444 human glioma cells)) (UniProt P06756)
integrin on CHO cells = biological target: integrin on CHO cells

Chain of UniProt P06756 (P06756 whole entry): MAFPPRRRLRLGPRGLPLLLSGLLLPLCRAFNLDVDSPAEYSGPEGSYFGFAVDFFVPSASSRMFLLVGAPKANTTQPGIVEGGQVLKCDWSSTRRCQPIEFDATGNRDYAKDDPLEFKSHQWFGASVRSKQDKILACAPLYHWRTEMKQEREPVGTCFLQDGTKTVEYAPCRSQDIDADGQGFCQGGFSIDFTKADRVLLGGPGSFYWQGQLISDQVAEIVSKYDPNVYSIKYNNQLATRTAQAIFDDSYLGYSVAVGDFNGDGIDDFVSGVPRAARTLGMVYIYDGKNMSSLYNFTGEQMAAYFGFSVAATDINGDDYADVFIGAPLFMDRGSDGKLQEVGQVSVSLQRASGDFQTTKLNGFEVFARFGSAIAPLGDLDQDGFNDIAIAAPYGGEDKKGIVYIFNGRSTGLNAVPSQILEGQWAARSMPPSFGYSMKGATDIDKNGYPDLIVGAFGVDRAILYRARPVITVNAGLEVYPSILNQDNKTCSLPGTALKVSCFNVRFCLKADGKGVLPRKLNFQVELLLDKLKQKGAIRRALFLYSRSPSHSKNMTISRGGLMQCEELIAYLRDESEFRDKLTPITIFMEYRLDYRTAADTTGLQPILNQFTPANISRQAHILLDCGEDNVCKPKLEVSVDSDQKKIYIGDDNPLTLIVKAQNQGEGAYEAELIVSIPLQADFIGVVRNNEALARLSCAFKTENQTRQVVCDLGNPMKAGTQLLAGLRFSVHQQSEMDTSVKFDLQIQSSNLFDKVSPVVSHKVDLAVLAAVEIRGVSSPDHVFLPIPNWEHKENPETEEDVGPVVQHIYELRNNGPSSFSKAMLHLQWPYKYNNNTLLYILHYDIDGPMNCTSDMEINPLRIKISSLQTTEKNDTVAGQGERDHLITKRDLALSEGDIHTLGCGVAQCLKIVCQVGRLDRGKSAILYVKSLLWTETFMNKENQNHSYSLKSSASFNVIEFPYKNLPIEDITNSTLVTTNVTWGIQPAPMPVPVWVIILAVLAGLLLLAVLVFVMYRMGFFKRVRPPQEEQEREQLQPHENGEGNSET

Substance	Luc enzyme activity after transduction of SK-HEP1 cells, against AdHM4-L2 (wild fiber) [1]	Luc enzyme activity after transduction of LN444 cells (CAR not expressed), against AdHM4-L2 (wild fiber) [2]	LacZ enzyme activity after transduction of CHO cells (CAR not expressed), against AdHM4-LacZ (wild fiber) (integrin on CHO cells)	LacZ enzyme activity after transduction of SK-HEP1 cells, against AdHM4-LacZ (wild fiber) [1]
AdHM15-RGD-L2 (adenovirus type 5 vector whose fiber carries the RGD-4C peptide in the HI loop; luciferase cassette) (from UniProt P11818 1-546; P11818 547-581)	10 fold	1000 fold	–	–
AdHM15-RGD-LacZ (adenovirus type 5 vector whose fiber carries the RGD-4C peptide in the HI loop; LacZ cassette in the E1-deleted region) (from UniProt P11818 1-546; P11818 547-581)	–	–	40 fold	2 fold
